± gives the standard deviation of the averaged measurements.
Assay: total protein half-life in vivo (active degradation + dilution); higher = more stable protein
[1] = E. coli NCM3722 delta-clpP delta-lon delta-hslV, growth: N-lim chemostat, doubling time 6 h
[2] = E. coli NCM3722 delta-clpP, growth: N-lim chemostat, doubling time 6 h
[3] = E. coli NCM3722 delta-hslV, growth: N-lim chemostat, doubling time 6 h
[4] = E. coli NCM3722 delta-lon, growth: N-lim chemostat, doubling time 6 h
[5] = E. coli NCM3722 delta-smpB, growth: N-lim chemostat, doubling time 6 h
[6] = wild type E. coli NCM3722, growth: C-lim chemostat, doubling time 3 h
[7] = wild type E. coli NCM3722, growth: C-lim chemostat, doubling time 6 h
[8] = wild type E. coli NCM3722, growth: C-lim chemostat, doubling time 12 h
[9] = wild type E. coli NCM3722, growth: N-lim chemostat, doubling time 6 h
[10] = wild type E. coli NCM3722, growth: N-lim chemostat, doubling time 12 h
[11] = wild type E. coli NCM3722, growth: P-lim chemostat, doubling time 6 h
[12] = wild type E. coli NCM3722, growth: P-lim chemostat, doubling time 12 h

| Sequence | total protein half-life in vivo [1] | total protein half-life in vivo [2] | total protein half-life in vivo [3] | total protein half-life in vivo [4] | total protein half-life in vivo [5] | total protein half-life in vivo [6] | total protein half-life in vivo [7] | total protein half-life in vivo [8] | total protein half-life in vivo [9] | total protein half-life in vivo [10] | total protein half-life in vivo [11] | total protein half-life in vivo [12] |
| --- | --- | --- | --- | --- | --- | --- | --- | --- | --- | --- | --- | --- |
| MAGLPNSSNALQQWHHLFEAEGTKRSPQAQQHLQQLLRTGLPTRKHENWKYTPLEGLINSQFVSIAGEISPQQRDALALTLDSVRLVFVDGRYVPALSDATEGSGYEVSINDDRQGLPDAIQAEVFLHLTESLAQSVTHIAVKRGQRPAKPLLLMHITQGVAGEEVNTAHYRHHLDLAEGAEATVIEHFVSLNDARHFTGARFTINVAANAHLQHIKLAFENPLSHHFAHNDLLLAEDATAFSHSFLLGGAVLRHNTSTQLNGENSTLRINSLAMPVKNEVCDTRTWLEHNKGFCNSRQLHKTIVSDKGRAVFNGLINVAQHAIKTDGQMTNNNLLMGKLAEVDTKPQLEIYADDVKCSHGATVGRIDDEQIFYLRSRGINQQDAQQMIIYAFAAELTEALRDEGLKQQVLARIGQRLPGGAR | 4.76 ± 0.4 h | 3.22 ± 0.11 h | 2.1 ± 0.063 h | 3.45 ± 1.1 h | 1.99 ± 0.24 h | 2.2 ± 0.22 h | 3.91 ± 0.52 h | 5.81 ± 0.08 h | 2.37 ± 0.38 h | 2.817 ± 0.0043 h | 3.2 ± 0.23 h | 6.04 ± 0.41 h |
| MAGNVQEKQLRWYNIALMSFITVWGFGNVVNNYANQGLVVVFSWVFIFALYFTPYALIVGQLGSTFKDGKGGVSTWIKHTMGPGLAYLAAWTYWVVHIPYLAQKPQAILIALGWAMKGDGSLIKEYSVVALQGLTLVLFIFFMWVASRGMKSLKIVGSVAGIAMFVMSLLYVAMAVTAPAITEVHIATTNITWETFIPHIDFTYITTISMLVFAVGGAEKISPYVNQTRNPGKEFPKGMLCLAVMVAVCAILGSLAMGMMFDSRNIPDDLMTNGQYYAFQKLGEYYNMGNTLMVIYAIANTLGQVAALVFSIDAPLKVLLGDADSKYIPASLCRTNASGTPVNGYFLTLVLVAILIMLPTLGIGDMNNLYKWLLNLNSVVMPLRYLWVFVAFIAVVRLAQKYKPEYVFIRNKPLAMTVGIWCFAFTAFACLTGIFPKMEAFTAEWTFQLALNVATPFVLVGLGLIFPLLARKANSK |  |  |  |  |  |  | 6.93 h |  |  |  |  |  |
| MAHIVTLNTPSREDWLTQLADVVTDPDELLRLLNIDAEEKLLAGRSAKKLFALRVPRSFIDRMEKGNPDDPLLRQVLTSQDEFVIAPGFSTDPLEEQHSVVPGLLHKYHNRALLLVKGGCAVNCRYCFRRHFPYAENQGNKRNWQTALEYVAAHPELDEMIFSGGDPLMAKDHELDWLLTQLEAIPHIKRLRIHSRLPIVIPARITEALVECFARSTLQILLVNHINHANEVDETFRQAMAKLRRVGVTLLNQSVLLRDVNDNAQTLANLSNALFDAGVMPYYLHVLDKVQGAAHFMVSDDEARQIMRELLTLVSGYLVPKLAREIGGEPSKTPLDLQLRQQ | 5.05 ± 0.77 h | 2.63 ± 0.045 h | 1.02 ± 0.14 h | 1.61 ± 0.14 h | 1.33 h | 1.41 ± 0.071 h | 1.57 ± 0.15 h | 3.35 ± 1.6 h | 1.58 ± 0.58 h | 2.05 h | 1.51 ± 0.33 h | 2.71 ± 0.88 h |
| MAIDENKQKALAAALGQIEKQFGKGSIMRLGEDRSMDVETISTGSLSLDIALGAGGLPMGRIVEIYGPESSGKTTLTLQVIAAAQREGKTCAFIDAEHALDPIYARKLGVDIDNLLCSQPDTGEQALEICDALARSGAVDVIVVDSVAALTPKAEIEGEIGDSHMGLAARMMSQAMRKLAGNLKQSNTLLIFINQIRMKIGVMFGNPETTTGGNALKFYASVRLDIRRIGAVKEGENVVGSETRVKVVKNKIAAPFKQAEFQILYGEGINFYGELVDLGVKEKLIEKAGAWYSYKGEKIGQGKANATAWLKDNPETAKEIEKKVRELLLSNPNSTPDFSVDDSEGVAETNEDF [P0A7G6] | 6.6 ± 1 h | 5.85 ± 0.55 h | 3.37 ± 0.057 h | 3.272 ± 0.025 h | 3.32 ± 0.036 h | 2.86 ± 0.031 h | 4.82 ± 0.084 h | 11.7 ± 4.1 h | 3.4281 ± 0.0021 h | 4.94 ± 0.44 h | 4.77 ± 0.2 h | 9.63 ± 0.48 h |
| MAIEIKVPDIGADEVEITEILVKVGDKVEAEQSLITVEGDKASMEVPSPQAGIVKEIKVSVGDKTQTGALIMIFDSADGAADAAPAQAEEKKEAAPAAAPAAAAAKDVNVPDIGSDEVEVTEILVKVGDKVEAEQSLITVEGDKASMEVPAPFAGTVKEIKVNVGDKVSTGSLIMVFEVAGEAGAAAPAAKQEAAPAAAPAPAAGVKEVNVPDIGGDEVEVTEVMVKVGDKVAAEQSLITVEGDKASMEVPAPFAGVVKELKVNVGDKVKTGSLIMIFEVEGAAPAAAPAKQEAAAPAPAAKAEAPAAAPAAKAEGKSEFAENDAYVHATPLIRRLAREFGVNLAKVKGTGRKGRILREDVQAYVKEAIKRAEAAPAATGGGIPGMLPWPKVDFSKFGEIEEVELGRIQKISGANLSRNWVMIPHVTHFDKTDITELEAFRKQQNEEAAKRKLDVKITPVVFIMKAVAAALEQMPRFNSSLSEDGQRLTLKKYINIGVAVDTPNGLVVPVFKDVNKKGIIELSRELMTISKKARDGKLTAGEMQGGCFTISSIGGLGTTHFAPIVNAPEVAILGVSKSAMEPVWNGKEFVPRLMLPISLSFDHRVIDGADGARFITIINNTLSDIRRLVM | 6.49 ± 0.23 h | 6.08 ± 0.4 h | 6.48 ± 0.081 h | 6.36 ± 0.067 h | 5.78 ± 0.37 h | 3.08 ± 0.092 h | 5.778 ± 0.018 h | 10.6 ± 0.66 h | 6.19 ± 0.27 h | 12.3 ± 0.84 h | 6.07 ± 0.26 h | 12.5 ± 0.53 h |
| MAIILGIDPGSRVTGYGVIRQVGRQLSYLGSGCIRTKVDDLPSRLKLIYAGVTEIITQFQPDYFAIEQVFMAKNADSALKLGQARGVAIVAAVNQELPVFEYAARQVKQTVVGIGSAEKSQVQHMVRTLLKLPANPQADAADALAIAITHCHVSQNAMQMSESRLNLARGRLR [P0A814] | 4.93 ± 0.29 h | 3.57 ± 0.066 h | 3.29 ± 0.05 h | 3.46 ± 0.7 h | 4.18 ± 1.7 h | 2.26 ± 0.1 h | 4.34 ± 0.17 h | 6.6 ± 0.2 h | 3.56 ± 0.17 h | 5.21 ± 0.39 h |  | 6.3836 ± 0.0059 h |
| MAILGLGTDIVEIARIEAVIARSGDRLARRVLSDNEWAIWKTHHQPVRFLAKRFAVKEAAAKAFGTGIRNGLAFNQFEVFNDELGKPRLRLWGEALKLAEKLGVANMHVTLADERHYACATVIIES | 5.28 ± 0.087 h |  |  | 5.71 ± 0.46 h | 5.093 ± 0.018 h | 2.85 ± 0.081 h | 5.87 ± 0.26 h | 12.9 ± 2.6 h | 5.35 ± 0.61 h | 11.2 ± 1.1 h | 5.72 ± 0.41 h | 11.5 ± 0.7 h |

Source: the supplement of paper PMC11246515
